In PMC6446905 (Science (New York, N.Y.), 2018):
Values belong to the binder of their own block, whether it stands above or below them.

What was measured:
Assay in all cases: cryo-EM structure
TAF3 = biological target: T1, TAF3 (human (endogenous in HeLa), UniProt Q5VWG9 1-929)
T1 sequence (looked up): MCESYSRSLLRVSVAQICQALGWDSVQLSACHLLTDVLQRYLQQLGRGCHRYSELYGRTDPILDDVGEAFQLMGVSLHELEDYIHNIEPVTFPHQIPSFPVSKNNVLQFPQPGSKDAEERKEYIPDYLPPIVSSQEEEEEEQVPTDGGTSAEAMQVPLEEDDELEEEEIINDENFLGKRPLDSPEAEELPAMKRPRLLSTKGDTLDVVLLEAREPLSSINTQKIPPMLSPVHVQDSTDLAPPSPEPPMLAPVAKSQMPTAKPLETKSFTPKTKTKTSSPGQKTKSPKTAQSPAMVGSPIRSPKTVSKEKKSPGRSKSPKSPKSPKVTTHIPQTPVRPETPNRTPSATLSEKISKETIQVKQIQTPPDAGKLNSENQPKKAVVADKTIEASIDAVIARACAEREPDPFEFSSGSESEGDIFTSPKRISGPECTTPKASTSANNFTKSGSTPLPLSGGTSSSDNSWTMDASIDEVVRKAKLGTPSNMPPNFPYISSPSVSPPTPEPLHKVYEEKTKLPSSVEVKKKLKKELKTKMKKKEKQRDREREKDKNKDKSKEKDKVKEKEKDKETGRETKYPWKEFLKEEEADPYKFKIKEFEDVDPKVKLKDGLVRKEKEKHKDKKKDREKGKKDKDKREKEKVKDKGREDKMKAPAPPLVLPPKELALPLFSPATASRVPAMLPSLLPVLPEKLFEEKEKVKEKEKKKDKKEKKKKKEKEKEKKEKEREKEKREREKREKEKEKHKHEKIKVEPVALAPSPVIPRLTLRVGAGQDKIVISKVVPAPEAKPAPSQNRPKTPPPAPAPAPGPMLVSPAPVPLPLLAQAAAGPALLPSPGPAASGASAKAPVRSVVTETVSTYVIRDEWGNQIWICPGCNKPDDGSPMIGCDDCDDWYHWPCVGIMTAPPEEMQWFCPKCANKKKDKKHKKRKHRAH

TAF8 = biological target: T2, TAF8 (human (endogenous in HeLa), UniProt Q7Z7C8 1-310)
T2 sequence (looked up): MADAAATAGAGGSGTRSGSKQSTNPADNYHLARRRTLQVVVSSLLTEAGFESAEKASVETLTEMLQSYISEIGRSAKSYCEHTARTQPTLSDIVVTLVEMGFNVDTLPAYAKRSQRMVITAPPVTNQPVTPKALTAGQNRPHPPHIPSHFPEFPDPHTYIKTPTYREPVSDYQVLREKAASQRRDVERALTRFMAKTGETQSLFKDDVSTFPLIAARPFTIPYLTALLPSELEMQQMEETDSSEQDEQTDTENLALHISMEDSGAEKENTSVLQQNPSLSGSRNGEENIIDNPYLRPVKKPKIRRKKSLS

TAF11 = TAF11 (human (endogenous in HeLa), UniProt Q15544 1-211)
Sequence of TAF11 (Q15544 whole entry): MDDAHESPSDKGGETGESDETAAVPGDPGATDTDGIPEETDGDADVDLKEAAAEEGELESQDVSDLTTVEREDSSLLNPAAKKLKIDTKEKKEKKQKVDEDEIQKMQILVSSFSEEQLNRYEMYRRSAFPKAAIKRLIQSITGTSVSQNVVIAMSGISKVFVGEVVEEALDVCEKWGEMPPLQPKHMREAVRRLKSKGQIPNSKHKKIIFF

binding result (TAF3): binds
binding result (TAF8): binds
B1: TAF10 (natural protein)
chain: not shown

binding result (TAF11): binds
B2: TAF13 (natural protein, human (endogenous in HeLa), UniProt Q15543 1-124, looked up)
chain: MADEEEDPTFEEENEEIGGGAEGGQGKRKRLFSKELRCMMYGFGDDQNPYTESVDILEDLVIEFITEMTHKAMSIGRQGRVQVEDIVFLIRKDPRKFARVKDLLTMNEELKRARKAFDEANYGS
